We go through two molecules from US5998188.

The target in this test is MAP kinase (ERKs) of PC12 cells.

As to “MKP-2 (rat mitogen-activated protein kinase phosphatase-2), full length, expressed from CMV-MKP-2 in PC12 cells”, the Gal4-Elk-1 dependent luciferase activity induced by Raf BxB in PC12 cells (% of maximal levels) stood at 90.

B1: MKP-1, full length, expressed from CMV-MKP-1 in PC12 cells (enzyme)
chain: MVMEVGILDAGGLRALLREGAAQCLLLDCRSFFAFNAGHIAGSVNVRFSTIVRRRAKGAMGLEHIVPNAELRGRLLAGAYHAVVLLDERSASLDGAKRDGTLALAAGALCREARSTQVFFLQGGYEAFSASCPELCSKQSTPTGLSLPLSTSVPDSAESGCSSCSTPLYDQGGPVEILSFLYLGSAYHASRKDMLDALGITALINVSANCPNHFEGHYQYKSIPVEDNHKADISSWFNEAIDFIDSIKDAGGRVFVHCQAGISRSATICLAYLMRTNRVKLDEAFEFVKQRRSIISPNFSFMGQLLQFESQVLAPHCSAEAGSPAMAVLDRGTSTTTVFNFPVSIPVHPTNSALNYLKSPITTSPSC
Molecule B1 returned a Gal4-Elk-1 dependent luciferase activity induced by Raf BxB in PC12 cells (% of maximally stimulated levels) of more than 60.
